A value given as a limit tells only on which side of the number the result lay.

This test addresses TIR1 (transport inhibitor response 1), codon-optimized rice TIR1 (rice).

B1: mAID^K→R-vhhGFP4^K→R (lysine-less mAID-nanobody) (VHH)
chain: ACPRDPARPPARAQVVGWPPVRSYRRNVMVSCQRSSGGPEAAAFVRVSMDGAPYLRRIDLRMYRMDQVQLVESGGALVQPGGSLRLSCAASGFPVNRYSMRWYRQAPGREREWVAGMSSAGDRSSYEDSVRGRFTISRDDARNTVYLQMNSLRPEDTAVYYCNVNVGFEYWGQGTQVTVSS
Regarding B1, the GFP-PCNA left at 22 hpf in zebrafish retinal neuroepithelium cells expressing TIR1 and mAID-nanobody, with 0.5 mM IAA as the bridging auxin (% of original GFP-PCNA levels) was < 20; the GFP-PCNA left at 22 hpf in zebrafish retinal neuroepithelium cells expressing TIR1 and mAID-nanobody, with 0.5 mM NAA as the bridging auxin (% of original GFP-PCNA levels) came to 12.

(Values after article PMC6098157.)
